# Experimental data as given in the DeepSol protein solubility set.
# Assay: soluble on expression in E. coli; label from the status in PepcDB or PDB records
row,Sequence,soluble on expression in E. coli
1,MIAITGATGQLGQHVIENLLKTTPASHLVAIVRNPKKAAPLSQRGIAVRQADYANEAALTTALQGVDKLLLISSSEVGQRTAQHRNVIQAAIAAKVKFIAYTSLLHADKSPLALADEHIETEKMLAESGIPHTLLRNGWYTENYLASVPAALKHGVFIGAAGEGKIASAMRADYAAAAARVIREEGHAGNVYELAGDDAWTLSQLADELTHQSGKKIVYQNLSEVDFAAALKGAGLPDGLADMLANSDAGAAKGGLFDDSHTLRKLIGRPTTTLTESLRSVL,not soluble
2,MICTLLVPVLGSFELVGQSIKDALAEYTLTDIMNNNQFAGIEFGEAEDGFPAFRFLQTADVKSPYRMLLPEKLYEFAILITFRQSSLKGGYLFSVVNPLDTVVQLGVHLSPVVKNSYNVSLVYTQADQNIGRKLASFGVAHVPDKWNSIALQVLSDKVSFYYDCELRNTTLVTREPIELVFDSASTLYIGQAGSIIGGKFEVSSGGGQFDYAFDLQSIVGELEHHHHHH,not soluble
3,MIDETAEEIREMRTHSSSVVAVKAARALEALLDSDYPTVAAYVRALERNSTALRRANPSHASLVTTQREVVSRVRDADPASIPEAQEVTAAAIDDVVARVNMGKHDAAAATAEHITDGQTLLTHDYSSTVLEAIELAAQDGAHLDVFVTEARPRHLGRKTVRALAQLDRVDPTLIVDGAAGHVLDDCDRVLLGMDCIVADTYYNRVGTYPIVAAAADAGTPVTVAGSAAKLVADGFQFTNDFRDTSEVIREPPAGFTVENPAYDATPTRLLDAVVTEDGRRTEFPLESLEHHHHHH,not soluble
4,MIEEPVDDVIKHGPKTGTPETKTVEIPFETKREFNPKLQPGEERVKQEGQPGSKTITTPITVNPLTGEKVGEGQPTEEITKQPVDKIVEFGGEKPKDPKGPENPEKPSRPTHPSGPVNPNNPGLSKDRAKPNGPVHSMDKNDKVKKSKIAKESVANQEKKRAELPKTGLESTQKGLIFSSIIGIAGLMLLARRRKN,not soluble
5,MIEINNLSKRYRNKQIFNHLTMSFDSNRLTVLLGDNGAGKSTLLRMIAGIEKANDGTINYFGEKWNQRQIQNHIGYVPQDIALFEHMTVAENIKFFKSLCKNPINDTTINEYLQQLNFDDTSAKVSTLSGGNKRKINILVGLLGQPRILILDEPTVGIDLKSRHDIHQLLNIMKSKCLIILTTHHLDEVEALADDIKLIGQDPFYQHVLEDKQWTYTYY,not soluble
6,MIEKKIHYVWFGNAKSEKVLKCIESWKKNLPDYEIIEWNEKNFNIEEELKSNKFFRECYNRKLWAFVSDYVRVKVLYNYGGIYLDTDMEIIKDITPLLDADMFLGYENEDTMSFGIVGVIPKHKVFKKMYEFYQNEIWKSPLHIVTSILTEILEKEYHGKYRENNINIYPREYFYPFNHDEEFTKDCITGNTYAIHWWGKSWKKNPKVYFLKYKHLPWWKKYPKHVAKLINYYFKNLFNFRKELEHHHHHH,soluble
7,MIELKPPDVMPNGNIGTPSQYFLEQIRLCRLPTTVISKLGIQTQKRKKKFGEVDFQYEKTDSCKAEKIKCETIPGVEDELEDPTERVRMNQNPEDNDDGKDDDNDQCEEWERHEALHEDVTEQDRAKPRKYEEEMEVTWEKGGPGLVWYTDKNYWDEREKGTDCDWAWADDWDVDYSVYYEGKSAGDMDAKAAIEMRNDDLMRSGKLEQSAFTKKRNPHNLGTTRKRRNSDGGGSSEKASENLQKGIGGSMLAKMGWKPGTGLGKNEQGRVVPVAVYVEEDGQSSKEKTGFGYRGEKLSRVVQKKTIRHVIASAFDSVTDREQCEDKQSEEELHGEILFRRSEVTKMNKFQVLKLQFPKRNIQKTKTFQNFGKLSKCTQLYRFFLMN,not soluble
8,MIERGKFRSLTLINWNGFFARTFDLDELVTTLSGGNGAGKSTTMAAFVTALIPDLTLLHFRNTTEAGATSGSRDKGLHGKLKAGVCYSMLDTINSRHQRVVVGVRLQQVAGRDRKVDIKPFAIQGLPMSVQPTQLVTETLNERQARVLPLNELKDKLEAMEGVQFKQFNSITDYHSLMFDLGIIARRLRSASDRSKFYRLIEASLYGGISSAITRSLRDYLLPENSG,soluble
9,MIEWQDLHHSELSVSQLYALLQLRCAVFVVEQNCPYQDIDGDDLTGDNRHILGWKNDELVAYARILKSDDDLEPVVIGRVIVSEALRGEKVGQQLMSKTLETCTHHWPDKPVYLGAQAHLQNFYQSFGFIPVTEVYEEDGIPHIGMAREVIQALEHHHHHH,not soluble
10,MIEWQLAELIPHAGDMILIDQVLDFDEEQINTRLTVRADGLFNQPDGSLPAWLGIELMAQSVAAYAGCQARSKGEAVKLGFLLGSRKFDCNVARFPAGSELHIHAIRSLQDDSGMGVFECTLTGPDITALARLNVYCPPNTADYLAEGAPALEHHHHHH,not soluble
11,MIFDGHSDTWADVTIRRLNGEKDVFRRIHLDNFKRANIEGAIFVIWIDPPYDKEPEKRVKQIISSIKDEIEDMKDVVNIVKKYSDIDKGISENKINILIGLEGLSHIGRNIDLLDYFYKEVGARHASLTWNEQNELATGCLGDENRGLTEIGKKAVNKMEKLGMIVDVSHLNEKSFWDLMSVASKPVIASHSNARSLCDAKRNLTDNQLKEISNTGGLVGINSFRGFTNSNPKKQDLIHLVDHIDYMVNLIGIEHVSFGFDFSDYLGKETIGSFTGNASVPSVDGLESTHTAQNIVVELENRGYKKKDIELISSGNFYRLFKDILK,not soluble
12,MIGGSLDAFIGSVHRMAAALDGTIELVCGAFSSNAARSIQTGEALHLPKERIYASYEEMIVQEAQLPADVRMQFVSIVTPNHLHAQPALLALKHGFHVLCEKPLAFSVAEAEQLGIQVKETGLLFGLTHTYTAYPMVKEARDLIAKGKLGTIRKIIVEYPQGWLSAPIESDGQKQAGWRTDPAQAGLSCCVGDIGTHAENIAEYITGLKITELSADVSSVVAGRKLDDDANILLRFDNGAKGVLIASQIANGEENELKIRVYGEHAGLEWLQSEPNTLIVKQNDQPTQLRRAGANHSYLSEHARLHCRIPAGHPEGYIEAMANIYRNFSKAVHSFEDQITHNPLLDYPTIEDGIRGMKFIETVIISGKENATWKQLLEHHHHHH,soluble
13,MIGMMNSGAESSVEFYAAARQSSLYEPRKKSSQSRTYTPEGRVLVNGAPLSPTLDPQDLWKNMIIKTAAQKMIRENCEKKETGPMATIRRLSEKLKLKKSKSSAAMMNLDLDLDQKIPEVSEIESSSTTAVPQSPQQFVTNIRIEEANPVFFVQQSESLDRPHMLFEETSVLARLLEESSQIDKMEKDFAEKDSGKGSIDDDSVVVHKL,not soluble
14,MIHSLFFHNNTKGTPSMKHPIDSISAEIEDEQAYVDKLFGKLDEEVVAANQRLNDVMLHVDPANPDAEALVRRETEYHALNEKIDRLNIAQLGLVFGRIDVTAQRTDLIDNWVAGTDNVDRRYIGRMGLDDRQNDYRTLLLDWRAPLARPFYLATTAHPEGVLHRRHIRTQGRSVVGVDDEVLSGVSAESAHSERADVVSETALYRAMCSARTGHMHSIVETIQREQDDIIRDPTRGVMVVEGGPGTGKTAVALHRVAYLLYTWRDQLAKTGVLIVGPNRSFLDYISRVLPELGETGVVLSTVGDLYPGISGTAVEDSLAREIKGSEEMVTVLRRLVQEYQQIPSEPFTIKIDGLELTVTPDIVKKARTRARRSRRPHNEARPLFTEHLTELLSHQMADLIGADPMGGKNLLSAADIAQLHDELLEESVVAEIVDEYWPQLTPQDTLTSLLESQNMISTVAYDYDEETQEALWRQQGSPWAASDAALLDELAVIIGVPDPEKERAEQEKAWREQIKDAQDALEILTGSANTDLDDESDAEILSAHDVIDAETLARRQEVRDIRSTAQRAREDLAWAYGHVIVDEAQELTPMEWRMVMRRCPSRWMTLVGDTAQTSSPAGVDSWAEALEPFVSGRYVTHHLTINYRTPAEIMEWANKVLHVFAPDAVGSTALRQSGTPVRFENSDAHAIEIAQKLRQDDPSRLTAIIGPDSMANNEIFGVSDIKGLEYDHVVVTNPIDIVNGSPQGWQDLYVALTRATQSLCIIGDLPELS,not soluble
15,MIIAREKRRNNIAEYVLYMWQIEDLIRANELDMQRLRATVIAQYRQDTETTAEIDRWYAELVEMMLTEGVREQGHINIVRIAIMQMEEIHSRLMADPKEMIYQGLYYQVLPAIVQLRAKSAGSNTGEIETCLTAIYGLLTLRLQKKEVSEETLASIKQMSTLLSVLSEKFAAREEGTDEALL,not soluble
16,MIIATAGHVDHGKTTLLQAITGVNADRLPEEKKRGMTIDLGYAYWPQPDGRVPGFIDVPGHEKFLSNMLAGVGGIDHALLVVACDDGVMAQTREHLAILQLTGNPMLTVALTKADRVDEARVDEVERQVKEVLREYGFAEAKLFITAATEGRGMDALREHLLQLPEREHASQHSFRLAIDRAFTVKGAGLVVTGTALSGEVKVGDSLWLTGVNKPMRVRALHAQNQPTETANAGQRIALNIAGDAEKEQINRGDWLLADVPPEPFTRVIVELQTHTPLTQWQPLHIHHAASHVTGRVSLLEDNLAELVFDTPLWLADNDRLVLRDISARNTLAGARVVMLNPPRRGKRKPEYLQWLASLARAQSDADALSVHLERGAVNLADFAWARQLNGEGMRELLQQPGYIQAGYSLLNAPVAARWQRKILDTLATYHEQHRDEPGPGRERLRRMALPMEDEALVLLLIEKMRESGDIHSHHGWLHLPDHKAGFSEEQQAIWQKAEPLFGDEPWWVRDLAKETGTDEQAMRLTLRQAAQQGIITAIVKDRYYRNDRIVEFANMIRDLDQECGSTCAADFRDRLGVGRKLAIQILEYFDRIGFTRRRGNDHLLRDALLFPEK,soluble
17,MIICKTPREIEIMREAGRIVALTHQELKQHITPGITTKELDQIAEKTIQKYGATPSFKGYNGFPGSICASVNEELVHGIPGKRKLKEGDIISIDIGAKYNGYHGDSAWTYPVGNISESVQKLLDVTEKSLYLGLEQVKPGERLSNISHAVQTHAEENGFSIVREYVGHGIGQDLHEDPQIPHYGPPNRGPRLKPGMVICVEPMVNQGRRYVKTLSDDWTVVTVDGKWCAHFEHTIALTEAGYEILTTL,soluble
18,MIIPALDLIDGTVVRLHQGDYARQRDYGNDPLPRLQDYAAQGAGVLHLVDLTGAKDPAKRQIPLIKTLVAGVNVPVQVGGGVRTEEDVAALLKAGVARVVIGSTAVKSPDVVKGWFERFGAQALVLALDVRIDEHGTKQVAVSGWQENSGVSLEQLVETYLPVGLKHVLCTDISRDGTLAGSNVSLYEEVCARYPQIAFQSSGGIGDIDDIAALRGTGVRGVIVGRALLEGKFTVKEAIQCWQNV,not soluble
19,MIIPEYGRTLTPEEWRPVVDEMLEATHIIFTTHENSDGDGLGSQVALALALKALGKEVAIFNPTEVPPNYLFLKELHEINLFRDRDEESMQEFFLADLLVVLDANLHDRIGRLWPHVEFARQMSRLKVLCIDHHLEPEDFADITVCETYASSTGELVCDLVTALELRTGQQLFTPEVASALYAAIMTDTGSFRFPKTTPYTYRLAGMLVEKGADPELVYDRIYNAL,not soluble
20,MIIQIEEYFIGMIFKGNQLVRNTIPLRREEIFNFMDGEVVSNPEDEHLKVAEIILKLYFAEIDDKKVRELISYKLEVPEFTKKVLDIVKDIEFGKTLTYGDIAKKLNTSPRAVGMALKRNPLPLIIPCHRVVAKNSLGGYSYGLDKKKFILERERLNMVSFKFNKVY,soluble
21,MIISAASDYRAAAQRTLPPFLFHYIDGGAYAEYTLRRNVEDLSQVALRQRVLKNMSDLSLETTLFNETLSMPVALAPVGLCGMYARRGEVQAAAAADAKGIPFTLSTVSVCPIEEVAPTIKRPMWFQLYVLRDRGFMRNALERAKAAGCSTLVFTVDMPTPGARYRDAHSGMSGPNAAMRRYWQAVMHPKWAWDVGLNGRPHDLGNISAYLGKPTGLEDYIGWLANNFDPSISWKDLEWIREFWDGPMVIKGILDPEDARDAVRFGADGIVVSNHGGRQLDGVLSSARALPAIADAVKGDIAILADSGIRNGLDVVRMIALGADTVLLGRAYLYALATAGKAGVANLLDLIEKEMKVAMTLTGAKSISEISGDSLVQELGKSLPAALAPMSKGDAA,not soluble
